± gives the uncertainty stated by the source.
B1: Peripheral plasma membrane protein CASK, residues 488 to 569; numbered along this chain, O14936 (parent)
chain: VRLVQFQKNTDEPMGITLKMNELNHCIVARIMHGGMIHRQGTLHVGDEIREINGISVANQTVEQLQKMLREMRGSITFKIVP

Variants of: B1
Assay: abundance fitness (aPCA) (normalised: wild type 0, dead -1); higher = more abundant; growth selection in yeast, the domain comes from the species named
Conditions: Homo sapiens

| Variant | abundance fitness |
| --- | --- |
| V57S | -0.158 ± 0.025 |
| V57G | -0.758 ± 0.028 |
| V57T | 0.027 ± 0.026 |
| V57W | -0.854 ± 0.047 |
| K19G | 0.025 ± 0.023 |
| K19F | -0.041 ± 0.036 |
| K19Y | -0.01 ± 0.041 |
| K19N | -0.037 ± 0.044 |
| F6Y | -0.095 ± 0.035 |
| F6W | -0.251 ± 0.025 |
| F6T | -0.129 ± 0.028 |
| F6N | -0.708 ± 0.069 |
| M36Q | -0.014 ± 0.044 |
| M36W | 0.068 ± 0.035 |
| M36N | -0.07 ± 0.08 |
| M36Y | 0.066 ± 0.072 |
| G35S | 0.027 ± 0.026 |
| G35I | -0.843 ± 0.17 |
| H25M | -0.019 ± 0.031 |
| P82R | -0.063 ± 0.044 |
| P82G | -0.083 ± 0.067 |
| P82E | -0.047 ± 0.076 |
| P82C | -0.072 ± 0.093 |
| P82K | -0.143 ± 0.092 |

| Variant | abundance fitness |
| --- | --- |
| P82M | -0.204 ± 0.077 |
| V4H | -0.235 ± 0.059 |
| V4S | -0.392 ± 0.033 |
| V4W | -0.307 ± 0.028 |
| Q5L | -0.092 ± 0.023 |
| Q5F | -0.041 ± 0.032 |
| Q5T | 0.117 ± 0.025 |
| D47S | -0.711 ± 0.077 |
| D47R | -0.939 ± 0.11 |
| D47K | -1.04 ± 0.24 |
| D47V | -0.859 ± 0.11 |
| D47N | -0.497 ± 0.1 |
| D47E | -0.323 ± 0.061 |
| N24V | -0.7 ± 0.034 |
| N24K | -0.032 ± 0.029 |
| N24D | -0.024 ± 0.033 |
| N24H | -0.006 ± 0.037 |
| N24M | -0.204 ± 0.03 |
| M68R | 0.002 ± 0.021 |
| M68N | -0.012 ± 0.051 |
| M68W | -0.049 ± 0.025 |
| M68V | -0.026 ± 0.024 |
| M68P | -0.647 ± 0.06 |
| M68E | -0.038 ± 0.029 |

| Variant | abundance fitness |
| --- | --- |
| M68L | -0.032 ± 0.024 |
| V45G | -0.548 ± 0.054 |
| V45M | -0.025 ± 0.074 |
| V45E | -0.054 ± 0.046 |
| I27Y | 0.007 ± 0.037 |
| I27F | -0.08 ± 0.037 |
| I27R | -0.227 ± 0.022 |
| I27A | -0.166 ± 0.025 |
| I27C | -0.16 ± 0.029 |
| I27M | -0.052 ± 0.03 |
| N9Q | -0.008 ± 0.027 |
| N9M | -0.012 ± 0.03 |
| N9F | -0.035 ± 0.043 |
| R70G | 0.006 ± 0.022 |
| R70A | 0.012 ± 0.024 |
| R70F | 0.002 ± 0.042 |
| R70P | -0.229 ± 0.031 |
| R70E | 0.016 ± 0.028 |
| L65N | -0.318 ± 0.069 |
| L65D | -1.07 ± 0.17 |
| L65C | -0.048 ± 0.036 |
| L65F | -0.23 ± 0.063 |
| L65A | -0.166 ± 0.027 |
| G34H | -0.052 ± 0.085 |

| Variant | abundance fitness |
| --- | --- |
| G34V | -0.447 ± 0.042 |
| G34Y | -0.489 ± 0.14 |
| G34N | -0.016 ± 0.1 |
| I55S | -0.033 ± 0.026 |
| I55C | 0.026 ± 0.033 |
| I55A | -0.016 ± 0.024 |
| K79I | -0.406 ± 0.055 |
| K79N | -0.091 ± 0.05 |
| K79P | -1.14 ± 0.16 |
| K79F | -0.457 ± 0.056 |
| K79W | -0.572 ± 0.084 |
| L69W | -0.308 ± 0.029 |
| L69E | -0.537 ± 0.058 |
| L69N | -0.609 ± 0.086 |
| L69V | -0.038 ± 0.027 |
| N53W | -0.972 ± 0.17 |
| N53T | -0.567 ± 0.073 |
| N53P | -0.719 ± 0.12 |
| N53S | -0.183 ± 0.043 |
| N53M | -0.357 ± 0.088 |
| V62W | -0.154 ± 0.026 |
| V62T | -0.007 ± 0.03 |
| V62F | -0.238 ± 0.052 |
| V62E | 0.015 ± 0.025 |

| Variant | abundance fitness |
| --- | --- |
| H38A | -0.028 ± 0.024 |
| H38G | -0.091 ± 0.02 |
| H38Q | 0.024 ± 0.034 |
| H38R | -0.209 ± 0.023 |
| F78L | -0.007 ± 0.027 |
| F78I | -0.045 ± 0.038 |
| F78A | -0.473 ± 0.047 |
| F78V | -0.198 ± 0.035 |
| S56G | -0.02 ± 0.022 |
| S56P | 0.009 ± 0.031 |
| S56H | -0.09 ± 0.041 |
| S56L | -0.08 ± 0.026 |
| S56V | -0.064 ± 0.023 |
| I37M | -0.021 ± 0.03 |
| I37G | -0.276 ± 0.023 |
| I37Q | -0.43 ± 0.045 |
| A58H | -0.075 ± 0.049 |
| A58K | 0.053 ± 0.035 |
| A58V | -0.025 ± 0.023 |
| A58L | -0.052 ± 0.027 |
| Q64W | -0.093 ± 0.026 |
| Q64P | -0.334 ± 0.032 |
| Q64S | -0.021 ± 0.023 |
| Q64V | -0.061 ± 0.021 |

| Variant | abundance fitness |
| --- | --- |
| V28T | -0.651 ± 0.051 |
| V28I | 0.03 ± 0.041 |
| V28Y | -0.779 ± 0.11 |
| G15P | -0.266 ± 0.037 |
| G15Y | -0.776 ± 0.073 |
| G15N | -0.398 ± 0.048 |
| G15Q | -0.362 ± 0.06 |
| G15E | -0.201 ± 0.051 |
| R2G | -0.225 ± 0.024 |
| R2C | -0.09 ± 0.049 |
| R2A | -0.149 ± 0.03 |
| R2E | -0.028 ± 0.034 |
| R2V | -0.089 ± 0.029 |
| R2M | 0.019 ± 0.033 |
| R2K | -0.055 ± 0.036 |
| R2Y | -0.002 ± 0.065 |
| K8V | -0.007 ± 0.023 |
| K8Y | -0.093 ± 0.043 |
| K8N | -0.098 ± 0.043 |
| K8M | -0.087 ± 0.032 |
| K8Q | 0.004 ± 0.031 |
| T17H | 0.031 ± 0.029 |
| T17G | -0.023 ± 0.021 |
| E71S | -0.013 ± 0.029 |

| Variant | abundance fitness |
| --- | --- |
| E71M | -0.053 ± 0.034 |
| E71Q | -0.051 ± 0.035 |
| E71V | -0.034 ± 0.025 |
| E71R | -0.008 ± 0.022 |
| E71N | -0.044 ± 0.063 |
| E71Y | 0.017 ± 0.051 |
| I16N | -0.654 ± 0.18 |
| I16W | -0.044 ± 0.033 |
| I16V | -0.081 ± 0.034 |
| I16A | -0.115 ± 0.035 |
| Q7P | -0.177 ± 0.034 |
| Q7D | 0.079 ± 0.032 |
| Q7V | 0.001 ± 0.022 |
| Q7E | 0.048 ± 0.026 |
| L18W | -0.492 ± 0.05 |
| L18F | 0.04 ± 0.061 |
| L18Y | -0.277 ± 0.15 |
| L18Q | -0.797 ± 0.13 |
| L18H | -0.877 ± 0.28 |
| L18C | -0.262 ± 0.045 |
| L18K | -0.796 ± 0.14 |
| E51S | 0.102 ± 0.096 |
| E51A | -0.096 ± 0.11 |

Reference: the Human Domainome abundance scans (Beltran et al. 2025)
